Our source for the binding result and Kd values is patent publication US20220162320A1 (published 2022).

The target of test [1] is HLA-PEPTIDE target G10: HLA-A*01:01_…, recombinant soluble complex (human, enzymatically biotinylated (BirA)). The experiment in a line: phage display, scFv ELISA on pHLA against negative control pHLAs.
Test [2] concerns the target T1, HLA-PEPTIDE target G2: HLA-A*01:01_…, recombinant soluble complex (human, enzymatically biotinylated (BirA)).
T1 construct: also called G2-pHLA
In words: BLI, antibody from 100 nM in 1:2 steps, 1:1 model; apparent KD.

Test [3] concerns the target T1, HLA-PEPTIDE target G2: HLA-A*01:01_…, …. The experiment in a line: BLI.
Test [4] concerns the target T2, HLA-A*01:01_… (G2) presented on cells (human).
T2 construct: whole, on cells
In words: flow cytometry on pulsed K562 cells, against off target peptide [..] and unpulsed cells.

Test [5] addresses T3, HLA-B*35:01 (alpha chain with beta-2 microglobulin), recombinant (human).
T3 construct: also called HLA complex of the conditional ligand exchange / stability ELISA
In words: conditional ligand exchange, stability ELISA.

Test [6] addresses HLA-A*02:01 (alpha chain with beta-2 microglobulin), recombinant (human). In words: conditional ligand exchange, stability ELISA.

B1: scFv G10(5A08) (scFv, V domains shown)
VH: QVQLVQSGAEVKKPGSSVKVSCKASGGTFNNFAISWVRQAPGQGLEWMGGIIPIFDATNYAQKFQGRVTFTADESTSTAYMELSSLRSEDTAVYYCARGEYSSGFFFVGWFDLWGRGTQVTVSS
VL: not shown
notes: also called G10(5A8); scFv-G10-P5A08
Consider B1, for which the binding result in test [1] is reported as “binds”.

B2: 4-G2(1H11)-OKT3 (bispecific antibody, human IgG1, kappa, N297Q)
chain: not shown
heavy: not shown
light: QIVLTQSPAIMSASPGEKVTMTCSASSSVSYMNWYQQKSGTSPKRWIYDTSKLASGVPAHFRGSGSGTSYSLTISGMEAEDAATYYCQQWSSNPFTFGSGTKLEINRTVAAPSVFIFPPSDEQLKSGTASVVCLLNNFYPREAKVQWKVDNALQSGNSQESVTEQDSKDSTYSLSSTLTLSKADYEKHKVYACEVTHQGLSSPVTKSFNRGEC
notes: also called format #4 (scFv/scFv-Fab): scFv G2(1H11), Fab OKT3
Regarding B2, in test [2], the Kd came out at 1.27 nM.

B3: 3-G2(1H11)-hOKT3 (bispecific antibody, human IgG1, kappa, N297Q)
chain: not shown
heavy: QVQLVQSGAEVKKPGASVKVSCKASGYTFTRYTMHWVRQAPGQGLEWMGYINPSRGYTNYNQKFKDRVTLTTDKSSSTAYMELSSLRSEDTAVYYCARYYDDHYSLDYWGQGTLVTVSSASTKGPSVFPLAPSSKSTSGGTAALGCLVKDYFPEPVTVSWNSGALTSGVHTFPAVLQSSGLYSLSSVVTVPSSSLGTQTYICNVNHKPSNTKVDKRVEPKSCDKTHTCPPCPAPELLGGPSVFLFPPKPKDTLMISRTPEVTCVVVDVSHEDPEVKFNWYVDGVEVHNAKTKPREEQYQSTYRVVSVLTVLHQDWLNGKEYKCKVSNKALPAPIEKTISKAKGQPREPQVCTLPPSREEMTKNQVSLSCAVKGFYPSDIAVEWESNGQPENNYKTTPPVLDSDGSFFLVSKLTVDKSRWQQGNVFSCSVMHEALHNRFTQKSLSLSPGK
light: DIQMTQSPSSLSASVGDRVTITCSASSSVSYMNWYQQKPGKAPKRLIYDTSKLASGVPSRFSGSGSGTDFTLTISSLQPEDFATYYCQQWSSNPFTFGQGTKLEIKRTVAAPSVFIFPPSDEQLKSGTASVVCLLNNFYPREAKVQWKVDNALQSGNSQESVTEQDSKDSTYSLSSTLTLSKADYEKHKVYACEVTHQGLSSPVTKSFNRGEC
notes: also called 3-hOKT3-G2(1H11)
In the case of B3, the binding result in test [3] and in test [4] was “binds” throughout. As to EVDPIGHVY (also called G5 peptide) [peptide EVDPIGHVY], the binding result in test [5] is “binds”.

B4: scFv G10(5C08) (scFv, V domains shown)
VH: QVQLVQSGAEVKKPGASVKVSCKASGYNFTGYYMHWVRQAPGQGLEWMGIIAPSDGSTNYAQKFQGRVTMTRDTSTSTVYMELSSLRSEDTAVYYCARETGDDAFDIWGQGTMVTVSS
VL: not shown
Turning to B4, in test [1], the binding result was “binds”. As for LLASSILCA (also called G7 peptide) [peptide LLASSILCA], the binding result in test [6] is reported as “binds”.
